In patent US20160304625A1 (WELT BIO MOLECULAR PHARMACEUTICAL, published 2016):

Key:
[1] = molecular target: T1, mIgG proximal domain peptide ELQLEESCAEAQDGELDG (human); experiment: competition ELISA, block 'Blocked by mAb 1', mIgG-PD
T1 construct: also called mIgG-PD; 18-mer mIgG
T1 peptide: ELQLEESCAEAQDGELDG

[2] = molecular target: human membrane bound IgM with kappa light chain (mIgM-kappa) (human, UniProt P01871 1-474); experiment: cell-based or functional assay
Chain of human membrane bound IgM with kappa light chain (mIgM-kappa) (P01871 whole entry): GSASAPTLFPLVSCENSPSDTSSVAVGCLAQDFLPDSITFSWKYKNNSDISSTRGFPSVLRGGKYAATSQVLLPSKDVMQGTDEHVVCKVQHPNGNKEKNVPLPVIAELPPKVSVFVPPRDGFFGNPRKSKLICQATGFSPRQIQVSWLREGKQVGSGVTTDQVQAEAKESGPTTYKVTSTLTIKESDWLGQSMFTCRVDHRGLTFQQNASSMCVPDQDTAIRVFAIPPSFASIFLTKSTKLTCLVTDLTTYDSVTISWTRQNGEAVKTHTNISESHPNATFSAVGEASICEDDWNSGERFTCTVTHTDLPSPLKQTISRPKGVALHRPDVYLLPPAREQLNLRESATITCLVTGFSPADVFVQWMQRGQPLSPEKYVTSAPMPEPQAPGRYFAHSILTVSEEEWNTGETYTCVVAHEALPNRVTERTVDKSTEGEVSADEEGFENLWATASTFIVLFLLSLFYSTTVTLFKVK

binding result [1]: no binding
clonogenic capacity of CA 46 [2]: 100 fold
B1: monoclonal antibody mAb4-2b (antibody, mouse IgG1, V domains shown)
VH: EVQLEESGAELVKPGASLKLSCKASGYTFTSYWMNWVKQRPGQGLEWIGIIHPNSGSTNYNEKFKTKATLTVDKSSSTAYMQLSSLTSEDSAVYYCARTRGNYGMDYWGQGTSVTVSS
VL: DIVMTQSHKFMSTSVGDRVSITCKASQDVSTAVAWYQQKPGQSPTLLIYSASYRNTGVPDRFTGSGSGTDFTFTISSVQAEDLAVYYCQQHFSIPPLTFGAGTKLELKR
